Results reported in paper PMC4234293, “Galactosyltransferases from Arabidopsis thaliana in the biosynthesis of type II arabinogalactan: molecular interaction enhances enzyme activity” (BMC Plant Biology, 2014).

B1: AtGALT31A (Arabidopsis thaliana beta-galactosyltransferase 1 from family GT31, At1g32930), C-terminal mCer3-HA or YFP-HA fusion (enzyme, UniProt Q9MAP8 1-399, looked up)
chain: MGMGRYQKSATSGVSARWVFVLCISSFLLGVLVVNRLLASFETVDGIERASPEQNDQSRSLNPLVDCESKEGDILSRVSHTHDVIKTLDKTISSLEVELATARAARSDGRDGSPAVAKTVADQSKIRPRMFFVMGIMTAFSSRKRRDSIRGTWLPKGDELKRLETEKGIIMRFVIGHSSSPGGVLDHTIEAEEEQHKDFFRLNHIEGYHELSSKTQIYFSSAVAKWDADFYIKVDDDVHVNLGMLGSTLARHRSKPRVYIGCMKSGPVLAQKGVKYHEPEYWKFGEEGNKYFRHATGQIYAISKDLATYISVNRQLLHKYANEDVSLGSWFIGLDVEHIDDRSLCCGTPLDCEWKGQAGNPCAASFDWSCSGICKSVDRMLEVHQRCGEGDGAIWHSSF
notes: AtGALT31A, Arabidopsis thaliana, locus At1g32930; full-length cDNA without stop codon; Two copies that differ only in the tag were used in the FRET experiments: mCer3-HA (donor) and YFP-HA (acceptor); They are kept as one molecule so that the homodimer row has the protein with itself; also called AtGALT31A-mCer3; AtGALT31A-YFP; source: N. benthamiana leaves, Agrobacterium-infiltrated, transient …
B2: AtGALT29A (Arabidopsis thaliana beta-galactosyltransferase 1 from family GT29, At1g08280), C-terminal mCer3-HA or YFP-HA fusion (enzyme, UniProt Q9SGD2 1-398, looked up)
chain: MKRSVRPLFSALLFAFFAATLICRVAIRRSSFSFASAIAELGSSGLMTEDIVFNETLLEFAAIDPGEPNFKQEVDLISDYDHTRRSHRRHFSSMSIRPSEQQRRVSRDIASSSKFPVTLRSSQAYRYWSEFKRNLRLWARRRAYEPNIMLDLIRLVKNPIDVHNGVVSISSERYLSCAVVGNSGTLLNSQYGDLIDKHEIVIRLNNAKTERFEKKVGSKTNISFINSNILHQCGRRESCYCHPYGETVPIVMYICQPIHVLDYTLCKPSHRAPLLITDPRFDVMCARIVKYYSVKKFLEEKKAKGFVDWSKDHEGSLFHYSSGMQAVMLAVGICEKVSVFGFGKLNSTKHHYHTNQKAELKLHDYEAEYRLYRDLENSPRAIPFLPKEFKIPLVQVYH
notes: AtGALT29A, Arabidopsis thaliana, locus At1g08280; full-length cDNA without stop codon; Two copies that differ only in the tag were used in the FRET experiments: mCer3-HA (donor) and YFP-HA (acceptor); They are kept as one molecule so that the homodimer row has the protein with itself; The label in each row tells which copy was meant; also called AtGALT29A-mCer3; AtGALT29A-YFP; source: N. …

What was measured:
Assay in all cases: FRET or BRET; acceptor photobleaching FRET, mCer3 donor and YFP acceptor, co-expressed in N. benthamiana leaf epidermal cells; Golgi ROIs, pixel-by-pixel FRET efficiency
[1] = molecular target: B2; details: partners not purified
[2] = molecular target: the molecule itself
[3] = molecular target: B1; details: partners not purified

| FRET efficiency [1] [%] | FRET efficiency [3] [%] | Binder | FRET efficiency [2] [%] |
| --- | --- | --- | --- |
| 29 | – | B1 | 19 |
| – | 18 | B2 | 34 |
